Experimental data taken from patent US7604932B2, “Assay for tissue factor in a sample” (Haematologic Technologies, Inc., priority 2002, dated 2009).
Values belong to the substance of their own block, whether it stands above or below them.

How the values were obtained:
factor VIIa = factor VIIa (Homo sapiens, UniProt P08709); test: Fluorogenic TF cofactor activity assay with excess factor VIIa and D-FPR-(n-butyl)ANSN, read against the units/ml standard curve (FIG. 3); type: biochemical
Experimental: A standardized preparation of recombinant human TF with a cofactor activity of 241 units/ml (specific activity of 3906 units/milligram) was serially diluted to create stock assay standards in the range of 8 to 0.25 units/ml. One hundred microliters of each stock standard was combined with 50 microliters of 120 nM factor VIIa. Subsequently 50 microliters of 150 uM D-FPR-(n-butyl)ANSN was added and the rate of substrate hydrolysis was measured in a fluorometer at an excitation wavelength of 350 nm and an emission wavelength of 470 nm. A standard curve was generated in FIG. 3 by plotting the change in fluorescent intensity over time versus the concentration of TF (in units/ml). In a similar manner, a sample of TF (0.8 mg/ml) with an unknown amount of cofactor activity was assayed for comparison to the standard. After correcting for assay dilution, the unknown sample returned an assay value of 2803 units per milliliter, and thus a specific activity of 3504 units per milligram. Consequently, this allows for comparison of different preparations of TF using their specific activity, which is a direct indication of quality and functionality.

fVIIa = fVIIa (Homo sapiens, UniProt P08709); test: Fluorogenic TF assay of relipidated TF with 2 nM fVIIa and D-FPR-(n-butyl)ANSN, compared to the FIG. 2 calibration curve; type: biochemical; settings: 250 pM TF to 500 nM PCPS (75% PC, 25% PS); 2 nM fVIIa; 2 mM CaCl2, pH 7.4; 50 μM D-FPR-(n-butyl)ANSN
Chain of fVIIa (P08709 61-212 limits assumed): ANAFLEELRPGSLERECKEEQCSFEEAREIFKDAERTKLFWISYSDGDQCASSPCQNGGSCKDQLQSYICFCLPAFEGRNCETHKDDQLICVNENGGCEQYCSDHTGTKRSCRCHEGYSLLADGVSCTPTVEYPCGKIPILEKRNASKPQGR
Chain of fVIIa (P08709 213-466 limits assumed): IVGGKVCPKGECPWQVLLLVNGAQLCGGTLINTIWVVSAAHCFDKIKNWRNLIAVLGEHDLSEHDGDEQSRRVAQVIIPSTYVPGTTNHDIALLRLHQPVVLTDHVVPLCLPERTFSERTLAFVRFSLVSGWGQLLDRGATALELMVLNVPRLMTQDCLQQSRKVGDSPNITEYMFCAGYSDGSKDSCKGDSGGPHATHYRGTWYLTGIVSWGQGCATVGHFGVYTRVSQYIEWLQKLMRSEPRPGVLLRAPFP
Chain of fVIIa (P13726 33-295 partner): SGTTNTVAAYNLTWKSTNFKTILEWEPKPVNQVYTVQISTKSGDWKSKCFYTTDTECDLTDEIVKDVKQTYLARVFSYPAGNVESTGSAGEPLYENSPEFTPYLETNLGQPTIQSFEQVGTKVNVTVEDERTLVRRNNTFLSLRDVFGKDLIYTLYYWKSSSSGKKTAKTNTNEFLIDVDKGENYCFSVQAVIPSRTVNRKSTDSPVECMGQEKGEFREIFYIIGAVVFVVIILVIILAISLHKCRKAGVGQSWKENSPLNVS
Experimental: Concentrations of TF were varied (0-500 pM) and incubated with 2 nM fVIIa in HBS pH 7.4, containing 2 mM Calcium Chloride (CaCl2), for 10 minutes at room temperature. Next, 50 μM D-FPR-(n-butyl)ANSN was added. Substrate hydrolysis was then monitored continuously for five minutes in a fluorometer at an excitation wavelength of 350 nm and an emission wavelength of 470 nm. The rates of substrate hydrolysis were determined for each TF concentration tested. The rate of hydrolysis by 2 nM fVIIa alone was measured and subtracted from the rates observed in the presence of TF. FIG. 2 is a graph of a calibration line based on these rates of hydrolysis at various TF concentrations.
In this example the preparation for TF employed in Example 3 was relipidated into phospholipid (PCPS) vesicles, composed of 75% phosphatidylcholine (PC) and 25% phosphatidylserine (PS). Relipidated TF, 250 pM TF to 500 nM PCPS, was incubated with 2 nM fVIIa in HBS, 2 mM CaCl2 pH 7.4 for ten minutes at room temperature. Next, 50 μM D-FPR-(n-butyl)ANSN was added. Rates of hydrolysis were determined and the rate of hydrolysis by 2 nM fVIIa alone was measured and subtracted from the rates observed in the presence of TF. The net rate of hydrolysis was then compared to the FIG. 2 calibration curve.

[1] = standardized preparation used as assay standard

Chain of factor VIIa (P08709 61-212 limits assumed): as the sequence (P08709 61-212 limits assumed) above
Chain of factor VIIa (P08709 213-466 limits assumed): as the sequence (P08709 213-466 limits assumed) above
Chain of factor VIIa (P13726 33-295 partner): as the sequence (P13726 33-295 partner) above

- cofactor activity (factor VIIa; [1]): 241 units/ml
Substance: recombinant human TF: standardized preparation of recombinant human tissue factor used as assay standard
- specific activity (factor VIIa; [1]): 3906 units/milligram

- cofactor activity, assay value after correcting for assay dilution (factor VIIa; TF sample 0.8 mg/ml, 120 nM factor VIIa stock, 150 uM D-FPR-(n-butyl)ANSN stock): 2803 units per milliliter
Substance: sample of TF: sample of tissue factor (0.8 mg/ml) with an unknown amount of cofactor activity
- specific activity (factor VIIa; TF sample 0.8 mg/ml): 3504 units per milligram

- TF added to the relipidation mixture expressed as functional TF (fVIIa): 35-40%
Substance: Relipidated TF: TF preparation of Example 3 relipidated into PCPS vesicles (75% phosphatidylcholine, 25% phosphatidylserine)
